Among the data in paper doi:10.1101/2025.08.04.25332941 are SPR response values, retold here.

In test [1] the target is HLA-A*24 with C-terminal His tag (A*24-His Tg) (human). As to the kind of experiment: SPR. For orientation: Surface plasmon resonance follows binding to a sensor surface in real time, without labels.
Test [2] concerns the target HLA-A*33 with C-terminal His tag (A*33-His Tg) (human). Briefly: SPR.

In the case of “Toxoplasma antigenic peptide SAG2C, wild type”, the values for the SPR response at 200 µM in test [1] and in test [2] were 15 RU and 150 RU, respectively.
